Measurements reported in US20060003399.

Key:
[1] = tested on: Full length human N-WASP, TAP-tagged at the C-terminus (Myc-N-WASP-TAP)
[2] = tested on: Full length human WASP, TAP-tagged at the C-terminus (Myc-WASP-TAP)

## GST-tev-Rac1
[1]
  actin polymerization at higher activator concentrations: At higher concentrations, Nck1, Nck2 and Rac1 inhibited WASP- and N-WASP-stimulated actin polymerization
[2]
  actin polymerization at higher activator concentrations: At higher concentrations, Nck1, Nck2 and Rac1 inhibited WASP- and N-WASP-stimulated actin polymerization
